{"source": "paper PMC9889268", "target": "wild-type ClbP (Escherichia coli CFT073) (UniProt Q0P7K6)", "assay": "cryo-EM structure; single-particle cryo-EM of detergent-solubilised ClbP; 10 mM HEPES pH 7.3, 200 mM NaCl, 0.06% GDN; 3.5 mg/ml; C2 symmetry imposed", "data": [{"substance": "wild-type ClbP (from UniProt Q0P7K6 1-504) (enzyme)", "values": [{"measurement": "stoichiometry N", "result": 2}]}]}
